Results from PMC4490372, “Architecture of TFIIIC and its role in RNA polymerase III pre-initiation complex assembly” (Nature Communications, 2015).

Columns and labels:
Assay in all cases: pull-down; 15 μg GST-tagged τ131 on Glutathione Sepharose 4B; 300 nM τ138 or Bdp1, or 1 μM Brf1–TBP; 50 mM Tris pH 7.5, 150 mM NaCl, 2 mM DTT, 0.1% Tween20; 4 °C, 4 h
Conditions in all cases: both partners purified
[1] = molecular target: T1, GST-tagged τ131 (1–580), wild type (S. cerevisiae, UniProt P33339 1-580)
T1 construct: τ131 (Tfc4) of S. cerevisiae TFIIIC, residues 1-580 (extended N terminus and TPR array); also called GST-τ131 (1–580); longer τ131 protein; source: E. coli BL21 (DE3) Gold, purified (GST column, S200 SEC)
T1 sequence (looked up): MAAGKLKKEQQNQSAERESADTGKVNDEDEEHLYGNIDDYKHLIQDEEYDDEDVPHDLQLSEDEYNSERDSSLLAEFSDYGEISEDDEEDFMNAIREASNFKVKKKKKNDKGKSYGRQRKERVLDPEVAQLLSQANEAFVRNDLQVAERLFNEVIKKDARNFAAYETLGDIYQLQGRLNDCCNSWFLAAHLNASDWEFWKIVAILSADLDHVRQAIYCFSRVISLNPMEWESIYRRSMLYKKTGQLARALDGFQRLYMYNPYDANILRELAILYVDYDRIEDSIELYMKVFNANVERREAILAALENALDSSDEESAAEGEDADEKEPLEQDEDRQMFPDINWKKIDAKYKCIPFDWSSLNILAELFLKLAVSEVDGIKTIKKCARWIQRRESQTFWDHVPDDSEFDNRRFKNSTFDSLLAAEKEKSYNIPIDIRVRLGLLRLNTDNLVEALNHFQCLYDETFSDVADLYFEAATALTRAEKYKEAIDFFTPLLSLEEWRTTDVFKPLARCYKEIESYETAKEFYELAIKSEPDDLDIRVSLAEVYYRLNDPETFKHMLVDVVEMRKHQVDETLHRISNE

[2] = molecular target: T2, GST-tagged τ131 (1–580) D468K (S. cerevisiae, UniProt P33339 1-580, D468K)
T2 construct: τ131 (Tfc4) of S. cerevisiae TFIIIC, residues 1-580, point mutant; also called D468K mutant of τ131 (1–580); source: E. coli BL21 (DE3) Gold, purified (GST column, S200 SEC)
T2 sequence (looked up): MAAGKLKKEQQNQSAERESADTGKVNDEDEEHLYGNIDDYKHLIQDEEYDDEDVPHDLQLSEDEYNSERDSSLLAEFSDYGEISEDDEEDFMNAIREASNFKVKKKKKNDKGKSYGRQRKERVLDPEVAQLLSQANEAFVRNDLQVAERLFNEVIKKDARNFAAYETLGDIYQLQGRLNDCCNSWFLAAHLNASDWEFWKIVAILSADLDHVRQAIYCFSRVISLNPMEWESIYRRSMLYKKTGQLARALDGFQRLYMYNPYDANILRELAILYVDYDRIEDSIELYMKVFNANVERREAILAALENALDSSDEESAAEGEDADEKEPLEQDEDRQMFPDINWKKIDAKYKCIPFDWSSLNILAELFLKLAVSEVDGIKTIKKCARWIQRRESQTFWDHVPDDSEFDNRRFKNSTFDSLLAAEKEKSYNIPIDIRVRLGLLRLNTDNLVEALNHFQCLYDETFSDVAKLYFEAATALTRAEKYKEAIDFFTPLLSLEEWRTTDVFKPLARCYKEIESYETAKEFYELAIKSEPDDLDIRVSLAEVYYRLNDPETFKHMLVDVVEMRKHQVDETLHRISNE

[3] = molecular target: T3, GST-tagged τ131 (1–580) L469K (S. cerevisiae, UniProt P33339 1-580, L469K)
T3 construct: τ131 (Tfc4) of S. cerevisiae TFIIIC, residues 1-580, point mutant; also called L469K mutant of τ131 (1–580); source: E. coli BL21 (DE3) Gold, purified (GST column, S200 SEC)
T3 sequence (looked up): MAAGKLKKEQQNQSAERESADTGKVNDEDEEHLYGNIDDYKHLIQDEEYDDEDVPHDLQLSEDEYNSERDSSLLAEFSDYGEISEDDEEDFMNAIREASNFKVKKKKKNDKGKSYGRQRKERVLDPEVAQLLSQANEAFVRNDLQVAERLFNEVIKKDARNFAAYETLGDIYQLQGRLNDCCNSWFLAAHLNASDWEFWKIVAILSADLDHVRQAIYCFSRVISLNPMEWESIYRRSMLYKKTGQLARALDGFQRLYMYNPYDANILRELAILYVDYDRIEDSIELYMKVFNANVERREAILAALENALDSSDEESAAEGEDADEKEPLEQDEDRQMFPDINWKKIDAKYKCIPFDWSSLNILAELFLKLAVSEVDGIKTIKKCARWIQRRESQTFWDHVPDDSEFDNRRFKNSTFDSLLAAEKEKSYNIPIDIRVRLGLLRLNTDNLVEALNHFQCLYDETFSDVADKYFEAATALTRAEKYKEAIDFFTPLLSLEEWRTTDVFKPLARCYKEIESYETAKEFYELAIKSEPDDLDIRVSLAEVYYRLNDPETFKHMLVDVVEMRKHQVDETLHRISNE

Measured: binding result

B1: Brf1–TBP fusion protein Brf1 (1–382)-TBP (61–240)-Brf1 (439–596) (other, UniProt P29056 1-382, looked up)
chain: MPVCKNCHGTEFERDLSNANNDLVCKACGVVSEDNPIVSEVTFGETSAGAAVVQGSFIGAGQSHAAFGGSSALESREATLNNARRKLRAVSYALHIPEYITDAAFQWYKLALANNFVQGRRSQNVIASCLYVACRKEKTHHMLIDFSSRLQVSVYSIGATFLKMVKKLHITELPLADPSLFIQHFAEKLDLADKKIKVVKDAVKLAQRMSKDWMFEGRRPAGIAGACILLACRMNNLRRTHTEIVAVSHVAEETLQQRLNEFKNTKAAKLSVQKFRENDVEDGEARPPSFVKNRKKERKIKDSLDKEEMFQTSEEALNKNPILTQVLGEQELSSKEVLFYLKQFSERRARVVERIKATNGIDGENIYHEGSENETRKRKLSESGIVPTLQNIVATVTLGCRLDLKTVALHARNAEYNPKRFAAVIMRIREPKTTALIFASGKMVVTGAKSEDDSKLASRKYARIIQKIGFAAKFTDFKIQNIVGSCDVKFPIRLEGLAFSHGTFSSYEPELFPGLIYRMVKPKIVLLIFVSGKIVLTGAKQREEIYQAFEAIYPVLSEFRKMPRNLHLLPTTDTYLSKVSDDPDNLEDVDDEELNAHLLNEEASKLKERIWIGLNADFLLEQESKRLKQEADIATGNTSVKKKRTRRRNNTRSDEPTKTVDAAAAIGLMSDLQDKSGLHAALKAAEESGDFTTADSVKNMLQKASFSKKINYDAIDGLFR
notes: Brf1, subunit of TFIIIB, residues 1-382; TBP, subunit of TFIIIB, residues 61-240; Brf1, subunit of TFIIIB, residues 439-596; source: E. coli BL21 Star (DE3) pRARE, purified (Ni-NTA, HiTrap SP); not shown: His6, C-terminal, kept
binds: all assays above
